According to US20250263470A1:
Positions count from the first letter of the chain named.

B1: FBD-56 (antibody, V domains shown)
VH: EVQLVESGGHLVQPGRSLRLSCAASGFTFEDYAMNWVRQAPGKGLEWVSVISWDSGRIGYADSVKGRFTISRDNAKNSSYLQMNSLRPEDTALYYCVRDMLAYYSDNSGKKYNVYGMDVWGQGTTVTVSS
VL: EIVLTQSPATLSLSPGERATLSCRASQSVSTFLAWYQQKPGQAPRLLMYDASNRATGIPARFSGSGSGTDFTLTISSLEPEDFAIYYCQQRSHWPPIFGQGTRLEIK
B2: FBD-94 (antibody, V domains shown)
VH: EVQLVESGGGLVQPGRSLRLSCAVSGFIFEDYAINWVRQAPGKGLEWVSIISWDSGRIGYADSVRGRFTISRDNAKNSSFLQMNSLRPEDTAVYYCVKDMLAYYYDGSGIRYNLYGMDVWGQGTTVTVSS
VL: B1 VL with Q27R, V29I, S30T, M48I, I58V, S76N, E81D, S92D
B3: FBC-39 (antibody, V domains shown)
VH: EVQLVVSGGGLVKPGGSLRLSCAASGLSFLNAWMSWVRQAPGKGLEWVGRIKSNTDGGTTDYAAPVKGRFSISRDDSKNMLFLHMSSLRTEDTAVYYCATDGPYSDDFRSGYAARYRYFGMDVWGQGTTVTVSS
VL: DIQMTQSPSSVSASVGDRVTITCRASQDISTWLAWYQQKPGKAPKLLIYAASSLQSGVPSRFSGSGSGTDFTLTISSLQPEDFATYFCQQANSFPPTFGQGTKLEIK
B4: FBC-39 LTL (antibody, V domains shown)
VH: B3 VH with V6E, S28T, S71T, M80T, F82Y, H84Q, R89K, A99T
VL: B3 VL with F87Y
B5: FBC-39 FTL (antibody, V domains shown)
VH: B3 VH with V6E, L27F, S28T, S71T, M80T, F82Y, H84Q, R89K, A99T
VL: B3 VL with F87Y
B6: FBC-39 FSL (antibody, V domains shown)
VH: B3 VH with V6E, L27F, S71T, M80T, F82Y, H84Q, R89K, A99T
VL: B3 VL with F87Y
B7: FBC-39 LSL (antibody, V domains shown)
VH: B3 VH with V6E, S71T, M80T, F82Y, H84Q, R89K, A99T
VL: B3 VL with F87Y
B8: FBC-39 FSS (antibody, V domains shown)
VH: B3 VH with V6E, L27F, L30S, S71T, M80T, F82Y, H84Q, R89K, A99T
VL: B3 VL with F87Y
B9: FBC-39 LTS (antibody, V domains shown)
VH: B3 VH with V6E, S28T, L30S, S71T, M80T, F82Y, H84Q, R89K, A99T
VL: B3 VL with F87Y

What was measured:
[1] = target: HA of influenza B virus ca B/Yamanashi/166/98 (yamagata) (influenza B virus B/Yamanashi/166/98); test: cell-based or functional assay
[2] = target: HA of influenza B virus ca B/Beijing/243/97 (victoria) (influenza B virus B/Beijing/243/97); test: cell-based or functional assay
[3] = target: HA of influenza B virus B/Hong Kong/330/2001 (victoria) (influenza B virus B/Hong Kong/330/2001); test: cell-based or functional assay
[4] = target: HA of influenza B virus B/Malaysia/2506/2004 (victoria) (influenza B virus B/Malaysia/2506/2004); test: cell-based or functional assay
[5] = target: HA of influenza B virus B/Hong Kong/5/72 (influenza B virus B/Hong Kong/5/72); test: cell-based or functional assay
[6] = target: HA of influenza B virus ca B/Ann Arbor/1/66 (influenza B virus B/Ann Arbor/1/66); test: cell-based or functional assay
[7] = target: HA of influenza B virus ca B/Johannesburg/5/99 (yamagata) (influenza B virus B/Johannesburg/5/99); test: cell-based or functional assay
[8] = target: HA of influenza B virus ca B/Brisbane/60/2008 (victoria) (influenza B virus B/Brisbane/60/2008); test: cell-based or functional assay
[9] = target: HA of influenza B virus ca B/Ann Arbor/2/94 (yamagata) (influenza B virus B/Ann Arbor/2/94); test: cell-based or functional assay
[10] = target: HA of influenza B virus B/Lee/40 (influenza B virus B/Lee/40) (UniProt P03460); test: cell-based or functional assay
[11] = target: recombinant HA derived from Yamagata lineage strain B/FLA/06 (B/Florida/4/2006) (influenza B virus B/Florida/4/2006); test: ELISA on coated recombinant HA, average of three experiments
[12] = target: recombinant HA derived from Victoria lineage strain B/BNE/08 (B/Brisbane/60/2008) (influenza B virus B/Brisbane/60/2008); test: as above
[13] = target: HA of influenza B virus B/Shanghai/361/02 (yamagata) (influenza B virus B/Shanghai/361/02); test: cell-based or functional assay
[14] = target: HA of influenza B virus B/Ohio/1/2005 (victoria) (influenza B virus B/Ohio/1/2005); test: cell-based or functional assay
[15] = target: HA of influenza B virus B/Yamagata/16/88 (yamagata) (influenza B virus B/Yamagata/16/88); test: cell-based or functional assay
[16] = target: HA of influenza B virus ca B/Victoria/504/2000 (yamagata) (influenza B virus B/Victoria/504/2000); test: cell-based or functional assay
[17] = target: HA of influenza B virus ca B/Georgia/02/98 (yamagata) (influenza B virus B/Georgia/02/98); test: cell-based or functional assay
[18] = target: HA of influenza B virus B/Sichuan/379/99 (yamagata) (influenza B virus B/Sichuan/379/99); test: cell-based or functional assay
[19] = target: recombinant HA derived from influenza A subtype H9 (A/chicken/HK/G9/97 (H9N2)) (influenza A virus A/chicken/Hong Kong/G9/97 (H9N2)); test: ELISA on coated recombinant H9 HA
[20] = target: recombinant HA derived from Yamagata lineage strain B/FLA/06 (B/Florida/4/2006) (influenza B virus B/Florida/4/2006); test: ELISA on coated recombinant HA, unpurified IgG
[21] = target: recombinant HA derived from Victoria lineage strain B/BNE/08 (B/Brisbane/60/2008) (influenza B virus B/Brisbane/60/2008); test: ELISA on coated recombinant HA, unpurified IgG

| Binder | Neutralization (Ave IC50 ug/ml) [1] | Neutralization (Ave IC50 ug/ml) [2] | Neutralization (Ave IC50 ug/ml) [3] | Neutralization (Ave IC50 ug/ml) [4] | Neutralization (Ave IC50 ug/ml) [5] | Neutralization (Ave IC50 ug/ml) [6] | Neutralization (Ave IC50 ug/ml) [7] | Neutralization (Ave IC50 ug/ml) [8] | Neutralization (Ave IC50 ug/ml) [9] | Neutralization (Ave IC50 ug/ml) [10] | EC50 [11] | EC50 [12] | EC50 [19] | EC50 [20] | EC50 [21] | Neutralization (Ave IC50 ug/ml) [18] | further results |
| --- | --- | --- | --- | --- | --- | --- | --- | --- | --- | --- | --- | --- | --- | --- | --- | --- | --- |
| B1 | 0.133 µg/mL | 0.016 µg/mL | 0.038 µg/mL | 0.058 µg/mL | 0.051 µg/mL | 0.035 µg/mL | 0.021 µg/mL | 0.01 µg/mL | 1.25 µg/mL | 0.004 µg/mL | 0.024 µg/mL | 0.03 µg/mL | – | – | – | – | – |
| B2 | 0.012 µg/mL | 0.005 µg/mL | 0.021 µg/mL | 0.023 µg/mL | 0.017 µg/mL | 0.014 µg/mL | 0.012 µg/mL | 0.006 µg/mL | 0.891 µg/mL | 0.009 µg/mL | 0.013 µg/mL | 0.016 µg/mL | – | – | – | – | Hemagglutination Inhibition Titer [13]: 0 nM; Hemagglutination Inhibition Titer [14]: 10 nM; Hemagglutination Inhibition Titer [1]: 10 nM; Hemagglutination Inhibition Titer [2]: 10 nM; Hemagglutination Inhibition Titer [3]: 10 nM; Hemagglutination Inhibition Titer [4]: 10 nM; Hemagglutination Inhibition Titer [5]: 3 nM; Hemagglutination Inhibition Titer [6]: 10 nM; Hemagglutination Inhibition Titer [7]: 10 nM; Hemagglutination Inhibition Titer [15]: 250 nM; Hemagglutination Inhibition Titer [16]: 8 nM; Hemagglutination Inhibition Titer [8]: 4 nM; Hemagglutination Inhibition Titer [17]: 8 nM; Hemagglutination Inhibition Titer [18]: 5 nM; Hemagglutination Inhibition Titer [9]: 5 nM; Hemagglutination Inhibition Titer [10]: 1 nM |
| B3 | 0.039 µg/mL | 0.218 µg/mL | 0.142 µg/mL | 0.079 µg/mL | 0.026 µg/mL | 0.061 µg/mL | 0.304 µg/mL | 0.238 µg/mL | 0.027 µg/mL | 0.021 µg/mL | 0.02 µg/mL | 0.048 µg/mL | 6.2 µg/mL | 0.022 µg/mL | 0.186 µg/mL | 0.034 µg/mL | Hemagglutination Inhibition Titer [13]: 16 nM; Hemagglutination Inhibition Titer [14]: 24 nM; Hemagglutination Inhibition Titer [1]: 13 nM; Hemagglutination Inhibition Titer [2]: 14 nM; Hemagglutination Inhibition Titer [3]: 16 nM; Hemagglutination Inhibition Titer [4]: 20 nM; Hemagglutination Inhibition Titer [5]: 8 nM; Hemagglutination Inhibition Titer [6]: 6 nM; Hemagglutination Inhibition Titer [7]: 18 nM; Hemagglutination Inhibition Titer [15]: 11 nM; Hemagglutination Inhibition Titer [16]: 16 nM; Hemagglutination Inhibition Titer [8]: 20 nM; Hemagglutination Inhibition Titer [17]: 16 nM; Hemagglutination Inhibition Titer [18]: 10 nM; Hemagglutination Inhibition Titer [9]: 6 nM; Hemagglutination Inhibition Titer [10]: 5 nM |
| B4 | 0.01 µg/mL | 0.152 µg/mL | 0.084 µg/mL | 0.076 µg/mL | 0.018 µg/mL | 0.023 µg/mL | – | 0.151 µg/mL | 0.023 µg/mL | 0.01 µg/mL | – | – | 6.3 µg/mL | 0.017 µg/mL | 0.114 µg/mL | 0.023 µg/mL | – |
| B5 | 0.007 µg/mL | 0.134 µg/mL | 0.121 µg/mL | 0.074 µg/mL | 0.022 µg/mL | 0.026 µg/mL | – | 0.098 µg/mL | 0.023 µg/mL | 0.013 µg/mL | – | – | 46.1 µg/mL | 0.017 µg/mL | 0.118 µg/mL | 0.023 µg/mL | – |
| B6 | 0.009 µg/mL | 0.195 µg/mL | 0.132 µg/mL | 0.076 µg/mL | 0.019 µg/mL | 0.034 µg/mL | – | 0.08 µg/mL | 0.023 µg/mL | 0.011 µg/mL | – | – | – | 0.014 µg/mL | 0.273 µg/mL | 0.022 µg/mL | – |
| B7 | 0.014 µg/mL | 0.182 µg/mL | 0.172 µg/mL | 0.094 µg/mL | 0.019 µg/mL | 0.027 µg/mL | – | 0.1 µg/mL | 0.033 µg/mL | 0.014 µg/mL | – | – | 41.7 µg/mL | 0.021 µg/mL | 0.152 µg/mL | 0.026 µg/mL | – |
| B8 | – | – | – | – | – | – | – | – | – | – | – | – | – | 0.019 µg/mL | > 1 µg/mL | – | – |
| B9 | – | – | – | – | – | – | – | – | – | – | – | – | – | 0.013 µg/mL | > 1 µg/mL | – | – |
